One may read the Km as the substrate concentration at which the rate is half of its maximum. As a reminder, the kcat is the maximal rate divided by the concentration of active sites.

The series relates to Nc1ncnc2c1ncn2[C@@H]1O[C@H](COP(=O)(O)OP(=O)(O)OP(=O)(O)O)[C@@H](O)[C@H]1O. Kind of series: purified protein. Conditions: 22 °C, pH 7.5, 1 mM Mg acetate, NdeI-linearized pBR322 dsDNA, ATP sites in RecB and RecD.

Text: TLC ATPase assay with [γ-32P]ATP tracer on RecBCD^Ps (RecBCD enzyme of Pseudomonas syringae Lz4W)

For “RecBCD^Ps (RecBCD enzyme of Pseudomonas syringae Lz4W) (Pseudomonas syringae)”, the Km stood at 57.8 ± 10.1 µM and the kcat is 245 s⁻¹.

For the origin of these results see publication PMC5959072, “Biochemical characterization of RecBCD enzyme from an Antarctic Pseudomonas species and identification of its cognate Chi (χ) sequence” (PLoS ONE, 2018).
